# T1: FcγRIIb extracellular domain with C-terminal His tag (human, UniProt P31994 43-217)
# T1 construct: extracellular domain; expressed in FreeStyle293 cells; analyte in Biacore; also called FcgRIIb; 2b
# T1 sequence (looked up): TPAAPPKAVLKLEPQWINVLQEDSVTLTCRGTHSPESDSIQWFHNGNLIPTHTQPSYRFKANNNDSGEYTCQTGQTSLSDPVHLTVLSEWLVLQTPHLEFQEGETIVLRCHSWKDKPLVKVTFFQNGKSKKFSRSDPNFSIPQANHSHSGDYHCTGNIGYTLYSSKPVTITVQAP
# B1: GpH7-A5/GpH7-B3 variant K334_12R/GpL16-k0 (antibody, human IgG1, kappa)
# heavy 1: not shown
# heavy 2: not shown
# light: DIVMTQSPLSLPVTPGEPASISCQASESLVHSNRNTYLHWYLQKPGQSPQLLIYKVSNRFSGVPDRFSGSGSGTDFTLKISRVEAEDVGVYYCSQNTHVPPTFGQGTKVEIERTVAAPSVFIFPPSDEQLKSGTASVVCLLNNFYPREAKVQWKVDNALQSGNSQESVTEQDSKDSTYSLSSTLTLSKADYEKHKVYACEVTHQGLSSPVTKSFNRGEC
# notes: also called He Ab K334_12R
# B2: GpH7-A5/GpH7-B3 variant I336_10E/GpL16-k0 (antibody, human IgG1, kappa)
# heavy 1: not shown
# heavy 2: not shown
# light: B1 light
# notes: also called He Ab I336_10E
# B3: GpH7-A5/GpH7-B3 variant P271_02A/GpL16-k0 (antibody, human IgG1, kappa)
# heavy 1: not shown
# heavy 2: not shown
# light: B1 light
# notes: also called He Ab P271_02A
# B4: GpH7-A5/GpH7-B3 variant L234_15Y/GpL16-k0 (antibody, human IgG1, kappa)
# heavy 1: not shown
# heavy 2: not shown
# light: B1 light
# notes: also called He Ab L234_15Y
# B5: GpH7-A5/GpH7-B3 variant P329_01G/GpL16-k0 (antibody, human IgG1, kappa)
# heavy 1: not shown
# heavy 2: not shown
# light: B1 light
# notes: also called He Ab P329_01G
# B6: GpH7-A5/GpH7-B3 variant P238_15Y/GpL16-k0 (antibody, human IgG1, kappa)
# heavy 1: not shown
# heavy 2: not shown
# light: B1 light
# notes: also called He Ab P238_15Y
# B7: GpH7-A5/GpH7-B3 variant Q295_15Y/GpL16-k0 (antibody, human IgG1, kappa)
# heavy 1: not shown
# heavy 2: not shown
# light: B1 light
# notes: also called He Ab Q295_15Y
# B8: GpH7-A5/GpH7-B3 variant K326_15Y/GpL16-k0 (antibody, human IgG1, kappa)
# heavy 1: not shown
# heavy 2: not shown
# light: B1 light
# notes: also called He Ab K326_15Y
# B9: GpH7-A5/GpH7-B3 variant H268_20W/GpL16-k0 (antibody, human IgG1, kappa)
# heavy 1: not shown
# heavy 2: not shown
# light: B1 light
# notes: also called He Ab H268_20W
# B10: GpH7-A5/GpH7-B3 variant P238_03V/GpL16-k0 (antibody, human IgG1, kappa)
# heavy 1: not shown
# heavy 2: not shown
# light: B1 light
# notes: also called He Ab P238_03V
# B11: GpH7-A5/GpH7-B3 variant I336_02A/GpL16-k0 (antibody, human IgG1, kappa)
# heavy 1: not shown
# heavy 2: not shown
# light: B1 light
# notes: also called He Ab I336_02A
# B12: GpH7-A5/GpH7-B3 variant L328_20W/GpL16-k0 (antibody, human IgG1, kappa)
# heavy 1: not shown
# heavy 2: not shown
# light: B1 light
# notes: also called He Ab L328_20W
# B13: GpH7-A5/GpH7-B3 variant K334_06M/GpL16-k0 (antibody, human IgG1, kappa)
# heavy 1: not shown
# heavy 2: not shown
# light: B1 light
# notes: also called He Ab K334_06M
# B14: GpH7-A5/GpH7-B3 variant H268_14T/GpL16-k0 (antibody, human IgG1, kappa)
# heavy 1: not shown
# heavy 2: not shown
# light: B1 light
# notes: also called He Ab H268_14T
# B15: GpH7-A5/GpH7-B3 variant L234_06M/GpL16-k0 (antibody, human IgG1, kappa)
# heavy 1: not shown
# heavy 2: not shown
# light: B1 light
# notes: also called He Ab L234_06M
# B16: GpH7-A5/GpH7-B3 variant L328_10E/GpL16-k0 (antibody, human IgG1, kappa)
# heavy 1: not shown
# heavy 2: not shown
# light: B1 light
# notes: also called He Ab L328_10E
# B17: GpH7-A5/GpH7-B3 variant P238_06M/GpL16-k0 (antibody, human IgG1, kappa)
# heavy 1: not shown
# heavy 2: not shown
# light: B1 light
# notes: also called He Ab P238_06M
# B18: GpH7-A5/GpH7-B3 variant K334_20W/GpL16-k0 (antibody, human IgG1, kappa)
# heavy 1: not shown
# heavy 2: not shown
# light: B1 light
# notes: also called He Ab K334_20W
# B19: GpH7-A5/GpH7-B3 variant K326_12R/GpL16-k0 (antibody, human IgG1, kappa)
# heavy 1: not shown
# heavy 2: not shown
# light: B1 light
# notes: also called He Ab K326_12R
# B20: GpH7-A5/GpH7-B3 variant P271_15Y/GpL16-k0 (antibody, human IgG1, kappa)
# heavy 1: not shown
# heavy 2: not shown
# light: B1 light
# notes: also called He Ab P271_15Y
# B21: GpH7-A5/GpH7-B3 variant K326_12R/GpL16-k0 (antibody, human IgG1, kappa)
# heavy 1: not shown
# heavy 2: not shown
# light: B1 light
# notes: He Ab; IgG1, mutation in one H chain
# B22: GpH7-A5/GpH7-B3 variant Q295_10E/GpL16-k0 (antibody, human IgG1, kappa)
# heavy 1: not shown
# heavy 2: not shown
# light: B1 light
# notes: as for B21
# B23: GpH7-A5/GpH7-B3 variant Q295_11K/GpL16-k0 (antibody, human IgG1, kappa)
# heavy 1: not shown
# heavy 2: not shown
# light: B1 light
# notes: as for B21
# B24: GpH7-A5/GpH7-B3 variant Q295_09D/GpL16-k0 (antibody, human IgG1, kappa)
# heavy 1: not shown
# heavy 2: not shown
# light: B1 light
# notes: as for B21
# B25: GpH7-A5/GpH7-B3 variant Q295_13S/GpL16-k0 (antibody, human IgG1, kappa)
# heavy 1: not shown
# heavy 2: not shown
# light: B1 light
# notes: as for B21
# B26: GpH7-A5/GpH7-B3 variant Q295_14T/GpL16-k0 (antibody, human IgG1, kappa)
# heavy 1: not shown
# heavy 2: not shown
# light: B1 light
# notes: as for B21
# B27: GpH7-A5/GpH7-B3 variant Q295_12R/GpL16-k0 (antibody, human IgG1, kappa)
# heavy 1: not shown
# heavy 2: not shown
# light: B1 light
# notes: as for B21
# Molecular target: T2, FcγRIa (human, UniProt P12314 16-292)
# T2 construct: extracellular domain; also called FcgRI; 1a
# Test: SPR (Biacore); He Ab relative to HeCon Ab = 100
# Summary of the method: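 Antibodies captured on antigen-peptide chips (CM5 amine-coupled or SA with biotinylated peptide), then each FcγR analyte, diluted in HBS-EP+, was injected at 25° C on Biacore T100. Surfaces regenerated with 10 mM glycine-HCl pH 1.5; binding expressed relative to the reference antibody.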
# T2 sequence (P12314 16-292): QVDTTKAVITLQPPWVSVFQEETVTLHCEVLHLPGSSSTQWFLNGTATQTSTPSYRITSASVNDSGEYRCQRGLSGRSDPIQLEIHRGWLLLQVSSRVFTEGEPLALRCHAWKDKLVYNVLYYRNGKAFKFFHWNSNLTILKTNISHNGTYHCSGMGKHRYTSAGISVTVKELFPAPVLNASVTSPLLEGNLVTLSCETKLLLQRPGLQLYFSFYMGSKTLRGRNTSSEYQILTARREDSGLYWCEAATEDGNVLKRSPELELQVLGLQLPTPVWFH
row,He/Con_1a,Binder
1,104 % of control,B1
2,108 % of control,B2
3,104 % of control,B3
4,100 % of control,B4
5,101 % of control,B5
6,101 % of control,B6
7,102 % of control,B7
8,106 % of control,B8
9,107 % of control,B9
10,100 % of control,B10
11,106 % of control,B11
12,103 % of control,B12
13,105 % of control,B13
14,112 % of control,B14
15,104 % of control,B15
16,101 % of control,B16
17,102 % of control,B17
18,106 % of control,B18
19,100 % of control,B19
20,103 % of control,B20

# Molecular target: T3, FcγRIa extracellular domain with C-terminal His tag (human, UniProt P12314 16-292)
# T3 construct: extracellular domain; expressed in FreeStyle293 cells; analyte in Biacore; also called FcgRI; 1a
# Test: SPR (Biacore), captured antibody, FcγR as analyte; relative binding
# T3 sequence (P12314 16-292): as above
row,He/Con_1a,Binder
1,100 % of HeCon Ab (GpH7-A5/GpH7-B3/GpL16-k0 = 100),B21
2,103 % of HeCon Ab (GpH7-A5/GpH7-B3/GpL16-k0 = 100),B22
3,101 % of HeCon Ab (GpH7-A5/GpH7-B3/GpL16-k0 = 100),B23
4,100 % of HeCon Ab (GpH7-A5/GpH7-B3/GpL16-k0 = 100),B24
5,102 % of HeCon Ab (GpH7-A5/GpH7-B3/GpL16-k0 = 100),B25
6,103 % of HeCon Ab (GpH7-A5/GpH7-B3/GpL16-k0 = 100),B26
7,100 % of HeCon Ab (GpH7-A5/GpH7-B3/GpL16-k0 = 100),B27

# Molecular target: T1, FcγRIIb extracellular domain with …
# Test: as above
row,He/Con_2b,Binder
1,89.2 % of HeCon Ab (GpH7-A5/GpH7-B3/GpL16-k0 = 100),B21
2,94.8 % of HeCon Ab (GpH7-A5/GpH7-B3/GpL16-k0 = 100),B22
3,70.4 % of HeCon Ab (GpH7-A5/GpH7-B3/GpL16-k0 = 100),B23
4,60.8 % of HeCon Ab (GpH7-A5/GpH7-B3/GpL16-k0 = 100),B24
5,56.9 % of HeCon Ab (GpH7-A5/GpH7-B3/GpL16-k0 = 100),B25
6,66.8 % of HeCon Ab (GpH7-A5/GpH7-B3/GpL16-k0 = 100),B26
7,65.2 % of HeCon Ab (GpH7-A5/GpH7-B3/GpL16-k0 = 100),B27

# — patent US20150344570A1 (published 2015)
